Test results from publication PMC9800282.

Target: vitronectin (VTN) (UniProt P04004)
Assay: SPR; Biacore T200; LNA043 (~3,000 RU), FN1 or VTN (~500 RU) amine-coupled to CM5; integrins as analytes 0.6–10 μM, single-cycle kinetics, 37 °C, 1× HBS-N, 0.005% Tween 20, 1 mM MgCl2, 1 mM CaCl2, 2 mM MnCl2; 1:1 binding fit

vitronectin (VTN), sequence (P04004 20-478): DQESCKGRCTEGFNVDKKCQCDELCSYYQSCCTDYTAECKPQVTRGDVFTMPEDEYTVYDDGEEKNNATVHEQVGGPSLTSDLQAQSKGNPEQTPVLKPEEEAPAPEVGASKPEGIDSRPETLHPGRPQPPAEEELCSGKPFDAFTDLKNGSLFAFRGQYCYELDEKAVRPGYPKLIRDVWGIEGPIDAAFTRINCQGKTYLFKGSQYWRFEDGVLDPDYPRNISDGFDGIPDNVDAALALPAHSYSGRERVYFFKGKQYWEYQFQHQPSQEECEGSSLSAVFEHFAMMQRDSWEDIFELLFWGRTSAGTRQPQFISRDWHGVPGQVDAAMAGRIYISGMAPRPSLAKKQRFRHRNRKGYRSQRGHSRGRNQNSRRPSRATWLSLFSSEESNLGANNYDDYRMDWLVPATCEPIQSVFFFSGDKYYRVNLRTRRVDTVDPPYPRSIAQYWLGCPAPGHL

Which Kd does the source give for “recombinant human αvβ3 integrin (from UniProt P06756 31-1048; P05106 27-718) (complex)” here?
The Kd was 997 nM.
